Results from patent US7265267.

Biological target: CDK complexes from A. thaliana purified on p13suc1 sepharose beads
Assay: cell-based or functional assay

CDK activity measured using histone H1 as substrate, compared to a control sample without FL66; 10 nM FL66 (% of the control): 82 | CDK activity measured using histone H1 as substrate, compared to a control sample without FL66; 100 nM FL66 (% of the control): 74 | CDK activity measured using histone H1 as substrate, compared to a control sample without FL66; 1 uM FL66 (% of the control): 56 | CDK activity measured using histone H1 as substrate, compared to a control sample without FL66; 10 uM FL66 (% of the control): 12 | kinase activity of the CDK fraction bound to p13suc1 beads, FL66 added prior to washing of the beads; 0.1 uM FL66 (% of the control): 81 | kinase activity of the CDK fraction bound to p13suc1 beads, FL66 added prior to washing of the beads; 10 uM FL66 (% of the control): 35
B1: Purified recombinant FL66 protein (E. coli, FL66pET21d), starting at methionine 11 (protein)
chain: MEVSKATAPSPGVRTRAAKTLALKRLNSSAADSALPNDSSCYLQLRSRRLEKPSSLIEPKQPPRVHRSGIKESGSRSRVDSVNSVPVAQSSNEDECFDNFVSVQVSCGENSLGFESRHSTRESTPCNFVEDMEIMVTPGSSTRSMCRATKEYTREQDNVIPTTSEMEEFFAYAEQQQQRLFMEKYNFDIVNDIPLSGRYEWVQVKP
